Biological target: mouse C5aR (mouse) (UniProt P30993)
Assay: cell-based or functional assay

UniProt P30993, sequence (P30993 other isoform, or with tags, fused parts or gaps): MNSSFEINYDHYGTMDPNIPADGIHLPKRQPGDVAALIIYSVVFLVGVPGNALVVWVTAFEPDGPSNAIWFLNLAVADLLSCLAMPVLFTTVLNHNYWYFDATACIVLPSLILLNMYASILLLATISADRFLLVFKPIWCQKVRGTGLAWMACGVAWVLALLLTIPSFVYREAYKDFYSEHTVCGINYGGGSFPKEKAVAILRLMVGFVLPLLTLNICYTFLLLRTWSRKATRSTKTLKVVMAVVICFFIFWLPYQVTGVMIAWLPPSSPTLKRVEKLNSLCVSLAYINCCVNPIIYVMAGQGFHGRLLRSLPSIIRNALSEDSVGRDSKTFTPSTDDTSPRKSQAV

Anti-mouse C5aR mAb m20/70 (20/70 variable regions on mouse kappa and mouse IgG2a.1 constant regions) (from UniProt P01863 1-330) (antibody)
inhibition of C5a-induced CD11b up-regulation on neutrophils (live Ly6G+ cells) in mouse whole blood stimulated with recombinant mouse C5a, flow cytometry: 0.6 µg/mL
